Measured values from publication PMC7360964, “Auto‐inhibition of Mif2/CENP‐C ensures centromere‐dependent kinetochore assembly in budding yeast” (The EMBO Journal, 2020).
Substitutions are numbered along the chain they refer to. Numbers in names are those of the source. Where no end group is shown, it is not given here.

How the values were obtained:
[1] = biological target: T1, Mtw1-Nnf1 heterodimer (MN) (S. cerevisiae, UniProt P39731 1-289; P47149 1-201); assay: ITC; peptide (Mif2 1-41 250 μM or Ame1 1-20 800 μM) titrated into 25 μM MN; 30 mM Hepes pH 7.5, 150 mM NaCl, 1 mM TCEP, 25°C; one set of binding sites; average of 3 or 4 experiments; conditions: both partners purified
T1 construct: Mtw1, S. cerevisiae; Nnf1, S. cerevisiae; also called Mtw1/Nnf1 dimer; MN complex; source: E. coli BL21 (DE3), purified (HisTrap, Q flow-through, SEC); not shown: His6, N-terminal, kept
T1 sequence (looked up) 1: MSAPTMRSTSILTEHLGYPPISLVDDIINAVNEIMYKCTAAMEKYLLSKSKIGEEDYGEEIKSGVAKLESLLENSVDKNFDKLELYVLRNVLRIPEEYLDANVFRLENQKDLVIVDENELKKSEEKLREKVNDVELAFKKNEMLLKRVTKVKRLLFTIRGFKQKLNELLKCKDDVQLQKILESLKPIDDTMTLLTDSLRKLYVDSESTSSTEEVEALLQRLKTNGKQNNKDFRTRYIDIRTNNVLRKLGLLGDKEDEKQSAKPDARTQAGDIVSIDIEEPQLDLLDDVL
T1 sequence (looked up) 2: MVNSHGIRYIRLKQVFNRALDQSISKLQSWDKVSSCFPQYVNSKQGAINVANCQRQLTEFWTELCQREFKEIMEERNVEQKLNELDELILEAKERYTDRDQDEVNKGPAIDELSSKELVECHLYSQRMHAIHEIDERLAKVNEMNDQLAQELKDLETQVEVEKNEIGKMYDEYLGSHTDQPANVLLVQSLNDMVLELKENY

[2] = biological target: T1, Mtw1-Nnf1 heterodimer (MN); assay: fluorescence polarisation; 0.1 μM FITC-Mif2 1-41, MN added from 0 to 4 μM; 30 mM Hepes pH 7.5, 150 mM NaCl, 1 mM TCEP, 23°C; one set of binding sites; triplicates; conditions: both partners purified
Ame1‐Okp1 (AO) complex = assay: Analytical SEC of Mtw1c wild-type and mutants with Ame1-Okp1 (AO); assay type: binding, budding yeast; conditions: 10 μM each
Method: Figure 3 Analysis of Mtw1 interface mutants in vivo • Structure of the Mtw1c head I bound to Mif2 and list of key residues constituting interface I (Mif2 binding) and interface II (putative Ame1 binding) from Dimitrova et al. • Analysis of these Mtw1 mutants in vivo using the anchor‐away technique. Mtw1‐FRB strains containing RPL13‐FKBP12 for cytoplasmic anchoring and additionally harboring the indicated rescue alleles were plated in serial dilution on YEPD or YEPD + rapamycin plates incubated at 30°C. • Tetrad analysis of Mtw1‐wt or mutants. […]
The GST pulldown experiment was performed using BSA‐preblocked GSH Sepharose beads. […] Beads were washed twice in pulldown buffer, before Laemmli sample buffer was added to the beads (GST pulldown) or proteins were eluted in pulldown buffer supplemented with 1 mg/ml Flag peptide before addition of Laemmli sample buffer (Flag pulldown) and samples were analyzed on a Coomassie Brilliant Blue‐stained SDS–PAGE gel or Western blotting. […] Elution of proteins was monitored at 280 nm. 100 μl fractions were collected and analyzed by SDS–PAGE and Coomassie Brilliant Blue staining or Western blotting. […] After several washes with lysis buffer, proteins were eluted with 0.2 mg/ml 3xFlag peptide in lysis buffer, and fractions were analyzed by Western blotting. […]

[3] = system: hemizygous Mtw1 deletion strain; assay: Tetrad analysis, Mtw1 alleles; assay type: cell-based, budding yeast; conditions: Mtw1 rescue construct only source of Mtw1
Method: Figure 3 Analysis of Mtw1 interface mutants in vivo • Structure of the Mtw1c head I bound to Mif2 and list of key residues constituting interface I (Mif2 binding) and interface II (putative Ame1 binding) from Dimitrova et al. • Analysis of these Mtw1 mutants in vivo using the anchor‐away technique. Mtw1‐FRB strains containing RPL13‐FKBP12 for cytoplasmic anchoring and additionally harboring the indicated rescue alleles were plated in serial dilution on YEPD or YEPD + rapamycin plates incubated at 30°C. • Tetrad analysis of Mtw1‐wt or mutants. Surviving spores in which the Mtw1‐wt or mutant rescue construct was the only source of Mtw1 are indicated in pink circles. • Western blotting confirming the expression of Mtw1‐6x‐Flag wt or mutant proteins in the Mtw1‐FRB strain background. • Analytical SEC runs and accompanying SDS–PAGE of Mtw1c‐wt or Mtw1c‐5A mutant (blue), AO (gray), or a stoichiometric combination of both complexes (green) at 10 μM each. Boxes indicate corresponding fractions in left and right panels.
The inability of these alleles to support growth was not due to lack of protein expression, although the steady‐state level was reduced compared to the wild‐type as shown by Western blotting (Fig 3D). We additionally confirmed that Mtw1 interface I mutants indeed confer a lethal phenotype by introducing the respective mutations into a hemizygous Mtw1 deletion strain and performing tetrad dissection. […] The more severe phenotype of Mtw1‐3A in the FRB system compared to tetrad dissection might be due to the additional mutations in the complex genetic background of the anchor‐away strain, which might make it more sensitive to the Mtw1‐3A mutation.
Serial fourfold dilutions of overnight cultures were prepared on 96‐well plates in minimal medium starting from OD600 of 0.6. The dilutions were spotted on YPD medium with and without rapamycin or on YP‐glucose and YP‐galactose and grown at 30°C for 3 days. […]

B1: Ame1-N peptide (aa 1-20) (peptide, UniProt P38313 1-20, looked up)
peptide: MDRDTKLAFRLRGSHSRRTD
notes: Ame1 (CENP-U homolog), S. cerevisiae, residues 1-20; also called Ame1^1-20; Ame1_1-20
Kd [1]: 12500 nM

B2: Mif2^1-41 peptide (peptide, UniProt P35201 1-41, looked up)
peptide: MDYMKLGLKSRKTGIDVKQDIPKDEYSMENIDDFFKDDETS
notes: Mif2, S. cerevisiae, residues 1-41, unlabeled, used in ITC; also called Mif2-N
Kd [1]: 1170 nM

B3: FITC-Mif2^1-41 (peptide, UniProt P35201 1-41, looked up)
peptide: B2 peptide
modifications: also: FITC label (position not given here)
notes: Mif2, S. cerevisiae, residues 1-41; also called Mif2-N (FITC-labeled N-terminal Mif2 peptide)
Kd [2]: 380 nM

B4: Mtw1‐5A: Mtw1 D25A D81A K82A E84A Y86A, interface I (protein, UniProt P39731 1-289, looked up, variant D25A D81A K82A E84A Y86A)
Kinetochore-associated …: T1 sequence (looked up) 1 with D25A, D81A, K82A, E84A, Y86A
interaction of Mtw1c with AO, SEC (Ame1‐Okp1 (AO) complex): no longer able to interact efficiently with AO
viability of haploid spores [3]: inviable

B5: Mtw1-8A: Mtw1 D25A N32A Y36A E73A D81A K82A E84A Y86A, interface I+II (protein, UniProt P39731 1-289, looked up, variant D25A N32A Y36A E73A D81A K82A E84A Y86A)
Kinetochore-associated …: T1 sequence (looked up) 1 with D25A, N32A, Y36A, E73A, D81A, K82A, E84A, Y86A
viability of haploid spores [3]: inviable

B6: Mtw1‐3A: Mtw1 E73A N32A Y36A, interface II (protein, UniProt P39731 1-289, looked up, variant E73A N32A Y36A)
Kinetochore-associated …: T1 sequence (looked up) 1 with N32A, Y36A, E73A
interaction of Mtw1c with AO, SEC (Ame1‐Okp1 (AO) complex): abolish AOc binding
viability of haploid spores [3]: viable, albeit slow‐growing
